In test [1] the target is HLA-DR (human leukocyte antigen-DR) on human lymphoma and leukemia cells and human lymphocytes (human). As to the kind of experiment: Jeko-1 (MCL) cells; no mAb 14.3; isotype control.
The target is the same in test [2]. As to the kind of experiment: HC-1 (hairy cell leukemia) cells; no mAb 4.8; isotype control.
For test [3] the target is unchanged. As to the kind of experiment: WAC (CLL) cells; no mAb 15.8; isotype control.
The target in test [4] is HLA-DR (L243 antigen) on canine lymphocytes and canine lymphoma cells (dog). Kind of test: flow cytometry, canine lymphoma aspirate 150836; none 3.9; control antibody.
For test [5] the target is unchanged. As to the kind of experiment: flow cytometry, dog lymphoma aspirate; none 3.85; control antibody.
For test [6], the target named is HLA-DR (human leukocyte antigen-DR) on human lymphoma and leukemia cells and human lymphocytes (human). As to the kind of experiment: K562 (CML) cells; no mAb 3.2; isotype control.
Test [7] has the same target. Kind of test: Kasumi-1 (AML) cells; no mAb 18.2; isotype control.
The target is the same in test [8]. As to the kind of experiment: indirect flow cytometry, Namalwa cells, FITC-GAM 2nd Ab; none 2.91; control antibody.
The target is the same in test [9]. Kind of test: 697 (ALL) cells; no mAb 4.9; isotype control.
Test [10] addresses HLA-DR (L243 antigen) on canine lymphocytes and canine lymphoma cells (dog). As to the kind of experiment: flow cytometry, dog lymphoma aspirate; none 3.37; control antibody. (Flow cytometry measures light scatter and fluorescence of single cells or particles in a stream.)
The target of test [11] is HLA-DR (human leukocyte antigen-DR) on human lymphoma and leukemia cells and human lymphocytes (human). As to the kind of experiment: Granta-519 (MCL) cells; no mAb 15.3; isotype control.
For test [12] the target is unchanged. As to the kind of experiment: GDM-1 (AML) cells; no mAb 16.8; isotype control.
Test [13] has the same target. Kind of test: MEC-1 (CLL) cells; no mAb 4.7; isotype control.
Test [14] deals with HLA-DR (L243 antigen) on canine lymphocytes and canine lymphoma cells (dog). Kind of test: flow cytometry, canine lymphoma aspirate 150836; none 3.4; control antibody.
For test [15], the target named is HLA-DR (human leukocyte antigen-DR) on human lymphoma and leukemia cells and human lymphocytes (human). As to the kind of experiment: MN60 (ALL) cells; no mAb 8.1; isotype control.
Test [16] shares this target. As to the kind of experiment: Kasumi-3 (AML) cells; no mAb 9.6; isotype control.
Test [17] has the same target. Kind of test: RS4;11 (ALL) cells; no mAb 6.4; isotype control.
For test [18] the target is unchanged. Kind of test: REH (ALL) cells; no mAb 3.9; isotype control.
For test [19], the target named is CD22 on human cells (human) (UniProt P20273). As to the kind of experiment: Kasumi-1 (AML) cells; no mAb 18.2.
For test [20], the target named is CD22 on dog lymphocytes and dog lymphoma cells (dog). As to the kind of experiment: flow cytometry, dog lymphoma aspirate; none 3.85.
The target of test [21] is CD22 on human cells (human) (UniProt P20273). As to the kind of experiment: GDM-1 (AML) cells; no mAb 16.8.
The target is the same in test [22]. Kind of test: MN60 (ALL) cells; no mAb 8.1.
Test [23] has the same target. As to the kind of experiment: REH (ALL) cells; no mAb 3.9.
Test [24] has the same target. As to the kind of experiment: HC-1 (hairy cell leukemia) cells; no mAb 4.8.
Test [25] shares this target. As to the kind of experiment: RS4;11 (ALL) cells; no mAb 6.4.
Test [26] has the same target. Kind of test: 697 (ALL) cells; no mAb 4.9.
The target is the same in test [27]. Kind of test: Granta-519 (MCL) cells; no mAb 15.3.
For test [28] the target is unchanged. Kind of test: indirect flow cytometry, Namalwa cells, FITC-GAM 2nd Ab; none 2.91.
Test [29] addresses CD22 on dog lymphocytes and dog lymphoma cells (dog). Kind of test: flow cytometry, canine lymphoma aspirate 150836; none 3.4.
Test [30] deals with CD22 on human cells (human) (UniProt P20273). Kind of test: Kasumi-3 (AML) cells; no mAb 9.6.
Test [31] has the same target. As to the kind of experiment: WAC (CLL) cells; no mAb 15.8.
The target is the same in test [32]. As to the kind of experiment: MEC-1 (CLL) cells; no mAb 4.7.
For test [33] the target is unchanged. Kind of test: K562 (CML) cells; no mAb 3.2.
For test [34], the target named is CD22 on dog lymphocytes and dog lymphoma cells (dog). Kind of test: flow cytometry, canine lymphoma aspirate 150836; none 3.9.
Test [35] has the same target. As to the kind of experiment: flow cytometry, dog lymphoma aspirate; none 3.37.
Test [36] concerns the target CD22 on human cells (human) (UniProt P20273). As to the kind of experiment: Jeko-1 (MCL) cells; no mAb 14.3.
For test [37], the target named is Fcγ-receptor on effector cells. Kind of test: cell-based or functional assay.
Test [38] deals with HLA-DR (human leukocyte antigen-DR) on human lymphoma and leukemia cells and human lymphocytes (human). As to the kind of experiment: indirect flow cytometry, Namalwa cells, FITC-GAM 2nd Ab; none 2.91; antibody of irrelevant specificity.
Test [39] deals with CD22 on dog lymphocytes and dog lymphoma cells (dog). Kind of test: flow cytometry, dog lymphoma aspirate; none 4.48.
For test [40] the target is unchanged. As to the kind of experiment: flow cytometry, canine lymphoma aspirate 150836; none 4.5.
Test [41] has the same target. Kind of test: flow cytometry, dog lymphoma aspirate; none 3.24.
Test [42] has the same target. Kind of test: flow cytometry, canine lymphoma aspirate 150836; none 3.2.
Test [43] concerns the target T1, CD20 on human cells (human) (UniProt P11836).
T1 sequence (looked up): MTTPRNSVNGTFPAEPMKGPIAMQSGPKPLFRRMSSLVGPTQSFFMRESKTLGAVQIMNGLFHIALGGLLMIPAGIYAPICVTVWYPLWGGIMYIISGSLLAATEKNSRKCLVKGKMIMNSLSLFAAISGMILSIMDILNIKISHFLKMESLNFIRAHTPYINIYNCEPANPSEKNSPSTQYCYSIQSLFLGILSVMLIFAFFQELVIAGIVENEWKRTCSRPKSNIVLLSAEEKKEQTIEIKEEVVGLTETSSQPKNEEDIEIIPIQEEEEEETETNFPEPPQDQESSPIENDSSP
Kind of test: Kasumi-1 (AML) cells; no mAb 18.2.

In test [44] the target is T2, CD20 on dog lymphocytes and dog lymphoma cells (dog) (UniProt Q3C2E2).
T2 sequence (looked up): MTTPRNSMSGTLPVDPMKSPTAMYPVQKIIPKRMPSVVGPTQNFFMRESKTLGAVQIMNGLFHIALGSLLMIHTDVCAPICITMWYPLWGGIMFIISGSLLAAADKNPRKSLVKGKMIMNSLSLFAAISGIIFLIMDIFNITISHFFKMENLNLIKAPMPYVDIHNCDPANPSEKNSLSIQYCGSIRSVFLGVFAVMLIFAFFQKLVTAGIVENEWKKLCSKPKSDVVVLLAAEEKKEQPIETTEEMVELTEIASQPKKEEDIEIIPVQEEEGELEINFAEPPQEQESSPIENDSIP
As to the kind of experiment: flow cytometry, dog lymphoma aspirate; none 3.85.

Test [45] concerns the target T1, CD20 on human cells (human). As to the kind of experiment: GDM-1 (AML) cells; no mAb 16.8.
The target is the same in test [46]. As to the kind of experiment: MN60 (ALL) cells; no mAb 8.1.
For test [47] the target is unchanged. Kind of test: REH (ALL) cells; no mAb 3.9.
The target is the same in test [48]. Kind of test: HC-1 (hairy cell leukemia) cells; no mAb 4.8.
The target is the same in test [49]. As to the kind of experiment: RS4;11 (ALL) cells; no mAb 6.4.
Test [50] shares this target. As to the kind of experiment: 697 (ALL) cells; no mAb 4.9.
The target is the same in test [51]. Kind of test: Granta-519 (MCL) cells; no mAb 15.3.
For test [52] the target is unchanged. Kind of test: indirect flow cytometry, Namalwa cells, FITC-GAM 2nd Ab; none 2.91.
Test [53] concerns the target T2, CD20 on dog lymphocytes and dog lymphoma cells (dog). Kind of test: flow cytometry, canine lymphoma aspirate 150836; none 3.4.
Test [54] concerns the target T1, CD20 on human cells (human). As to the kind of experiment: Kasumi-3 (AML) cells; no mAb 9.6.
In test [55] the target is T2, CD20 on dog lymphocytes and dog lymphoma cells (dog). Kind of test: flow cytometry on tumor aspirates from dogs with lymphoma.
Test [56] addresses T1, CD20 on human cells (human). Kind of test: WAC (CLL) cells; no mAb 15.8.
Test [57] has the same target. As to the kind of experiment: MEC-1 (CLL) cells; no mAb 4.7.
For test [58] the target is unchanged. Kind of test: K562 (CML) cells; no mAb 3.2.
The target in test [59] is T2, CD20 on dog lymphocytes and dog lymphoma cells (dog). As to the kind of experiment: flow cytometry, canine lymphoma aspirate 150836; none 3.9.
The target is the same in test [60]. As to the kind of experiment: flow cytometry, dog lymphoma aspirate; none 3.37.
Test [61] concerns the target T1, CD20 on human cells (human). Kind of test: Jeko-1 (MCL) cells; no mAb 14.3.
For test [62], the target named is HLA-DR (human leukocyte antigen-DR) on human lymphoma and leukemia cells and human lymphocytes (human). Kind of test: indirect flow cytometry, Namalwa cells, FITC-GAH 2nd Ab; none 2.52; antibody of irrelevant specificity (anti-EGP-1).

“Ag8 (P3x63 Ag8, murine myeloma derived mAb, isotype control) (antibody)”: the mean FL was determined as 17.4 in test [1]; 3.5 in [2]; 14.4 in test [3]; 4.1 in test [6]; 17 in test [7]; 5.6 in test [9]. Moreover, the mean FL in test [10] worked out at 3.04; in test [11], 16.9; in test [12], 20.1; in [13], 6; in [14], 3; in test [15], 10.5. Further, the mean FL came to 15.7 in test [16], 8.6 in [17] and 3.9 in test [18]. Besides, the results for the % Positive in test [4] and in test [5] were 2.8% and 2.81%, respectively. In test [8], the geometric mean fluorescence came out at 3.64.
Consider “LL2 (murine anti-human CD22 mAb) (antibody)”, for which the mean FL in test [19] came to 20.9; in test [21] it was 28.5; in test [22] it was 17.1; in test [23], 16.8; in [24], 17.8; in [25], 20.9. The mean FL came out at 15.9 in test [26]; 28.6 in test [27]; 3.7 in [29]; 13.9 in test [30]; 20.1 in test [31]; 49 in test [32]. Besides, the mean FL in test [33] is 4.3; in [35], 3.73; in test [36] it was 25. Also, the % Positive was 5.05% in test [20] and 5.1% in test [34]. This substance displayed a geometric mean fluorescence in test [28] of 10.5.
In the case of “hL243 (humanized L243 anti-HLA-DR antibody, IgG1/K isotype)”, the specific lysis of Daudi target cells (ADCC), corrected for the effect on effector cells in test [37] came out at 48%.
RS7 (murine mAb) (antibody): in [38], the geometric mean fluorescence was 3.39.
Take “hL243γ4P (IMMU-114; humanized L243, IgG4/K isotype with Ser241Pro hinge mutation) (antibody)”: in test [37], the specific lysis of Daudi target cells (ADCC), corrected for the effect on effector cells came to 12%.
For the substance “hLL2 (epratuzumab, humanized anti-CD22) (antibody)”, the % Positive in test [39] amounted to 4.85%; in test [40], 4.9%. Moreover, the figures for the mean FL in test [41] and in test [42] were 3.37 and 3.4, respectively.
In the case of “2B8 (murine anti-human CD20 mAb) (antibody)”, the mean FL is 14.5 in [43]; 15.6 in test [45]; 162 in test [46]; 23.5 in [47]; 42.2 in [48]; 11.5 in test [49]. The mean FL was 6.9 in test [50]; 677 in test [51]; 3.1 in [53]; 11 in [54]; 275 in test [56]; 175 in test [57]. Moreover, the mean FL in [58] was determined as 4.3; in [60], 3.11; in test [61] it was 455. The % Positive in test [44] came to 2.61%; in test [59] it was 2.6%. The same substance yielded a geometric mean fluorescence in test [52] of 6.16. This substance yielded a positive samples (of 21 samples) in test [55] of 5. In test [55], this substance registered a strongly positive samples (of 21 samples) of 3.
Substance hRS7 (humanized anti-EGP-1 antibody) yielded a geometric mean fluorescence in test [62] of 2.47.

These data come from patent US20160355591A1.
